Measurements published in patent US20260226187A1.

Tests used:
[1] = target: Human EpCAM expressed on cells (CHO-hEpCAM, HCT116) (human) (UniProt P16422); assay: flow cytometry of HCT116 cells stained with PE anti-hEpCAM clone 9C4, quantified with the QuantiBrite PE bead standard curve
[2] = target: Human EpCAM expressed on cells (CHO-hEpCAM, HCT116) (human) (UniProt P16422); assay: flow cytometry of CHO-hEpCAM cells stained with PE anti-hEpCAM clone 9C4, quantified with the QuantiBrite PE bead standard curve
[3] = target: Cynomolgus EpCAM expressed on CHO cells (cynomolgus monkey); assay: flow cytometry of CHO-cynoEpCAM cells stained with PE anti-hEpCAM clone 9C4, quantified with the QuantiBrite PE bead standard curve
FcγRI (CD64) (human) = FcγRI (CD64) (human) (UniProt P12314); assay: SPR, His-captured FcγRI, antibody analyte, 1:1 model, PBST pH 7.4
FcRn (human) = FcRn (human) (UniProt P55899); assay: SPR, antibody immobilised, FcRn analyte, steady state model, pH 6.0
[4] = target: FcγRIIb/c (CD32b/c) (human) (UniProt P31994); assay: SPR, His-captured FcγRIIb/c, antibody analyte, steady state model, HBS-EP+
[5] = target: FcγRIIIa F158 (CD16a) (human) (UniProt P08637); assay: SPR, His-captured FcγRIIIa F158, antibody analyte, steady state model, HBS-EP+ (FIG. 31)
FcγRIIIb (CD16b) (human) = FcγRIIIb (CD16b) (human) (UniProt O75015); assay: SPR, His-captured FcγRIIIb (CD16b), antibody analyte, steady state model, HBS-EP+ (legend of FIG. 32; receptor printed as FcγRIIIa)
Sequence of FcγRIIIb (CD16b) (human) (O75015 17-200 limits assumed): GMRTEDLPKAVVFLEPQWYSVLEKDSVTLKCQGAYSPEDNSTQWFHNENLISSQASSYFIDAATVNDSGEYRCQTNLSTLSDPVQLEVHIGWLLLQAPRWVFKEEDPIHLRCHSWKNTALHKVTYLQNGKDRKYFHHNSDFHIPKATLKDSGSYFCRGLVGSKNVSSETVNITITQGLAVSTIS

Sequence of Human EpCAM expressed on cells (CHO-hEpCAM, HCT116) (human) (P16422 24-314): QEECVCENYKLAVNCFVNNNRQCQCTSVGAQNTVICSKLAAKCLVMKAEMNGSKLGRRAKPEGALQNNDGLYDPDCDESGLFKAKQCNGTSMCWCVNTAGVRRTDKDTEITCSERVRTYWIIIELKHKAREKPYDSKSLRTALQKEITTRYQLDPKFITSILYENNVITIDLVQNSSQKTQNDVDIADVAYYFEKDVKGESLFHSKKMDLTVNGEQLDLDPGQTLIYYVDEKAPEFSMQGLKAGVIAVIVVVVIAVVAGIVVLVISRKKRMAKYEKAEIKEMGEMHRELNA
Sequence of FcγRIIb/c (CD32b/c) (human) (P31994 43-217): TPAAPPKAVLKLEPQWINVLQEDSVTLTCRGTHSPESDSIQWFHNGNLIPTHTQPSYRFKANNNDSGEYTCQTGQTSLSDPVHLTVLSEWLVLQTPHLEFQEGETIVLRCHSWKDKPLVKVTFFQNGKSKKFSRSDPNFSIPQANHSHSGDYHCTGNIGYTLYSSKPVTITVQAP
Sequence of FcRn (human) (P55899 24-297 limits assumed, chain 1 of 2): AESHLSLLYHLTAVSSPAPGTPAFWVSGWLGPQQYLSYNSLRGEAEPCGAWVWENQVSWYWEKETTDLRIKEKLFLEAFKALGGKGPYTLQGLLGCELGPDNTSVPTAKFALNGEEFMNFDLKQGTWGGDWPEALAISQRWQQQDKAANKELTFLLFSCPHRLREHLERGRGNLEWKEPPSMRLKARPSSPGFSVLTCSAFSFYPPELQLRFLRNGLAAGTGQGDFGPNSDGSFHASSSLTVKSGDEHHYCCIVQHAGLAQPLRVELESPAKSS
Sequence of FcRn (human) (chain, as listed by the source limits assumed, chain 2 of 2): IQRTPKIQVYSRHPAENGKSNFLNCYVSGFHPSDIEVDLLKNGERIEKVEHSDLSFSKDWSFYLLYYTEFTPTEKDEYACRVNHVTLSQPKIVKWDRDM
Sequence of FcγRIIIa F158 (CD16a) (human) (P08637 17-208): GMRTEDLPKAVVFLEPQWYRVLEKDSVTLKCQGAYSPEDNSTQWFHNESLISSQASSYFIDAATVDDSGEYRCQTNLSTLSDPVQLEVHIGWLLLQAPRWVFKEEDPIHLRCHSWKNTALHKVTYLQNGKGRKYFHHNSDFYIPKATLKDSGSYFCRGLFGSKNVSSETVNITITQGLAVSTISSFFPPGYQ
Sequence of Cynomolgus EpCAM expressed on CHO cells (cynomolgus monkey) (Q1WER1 24-314): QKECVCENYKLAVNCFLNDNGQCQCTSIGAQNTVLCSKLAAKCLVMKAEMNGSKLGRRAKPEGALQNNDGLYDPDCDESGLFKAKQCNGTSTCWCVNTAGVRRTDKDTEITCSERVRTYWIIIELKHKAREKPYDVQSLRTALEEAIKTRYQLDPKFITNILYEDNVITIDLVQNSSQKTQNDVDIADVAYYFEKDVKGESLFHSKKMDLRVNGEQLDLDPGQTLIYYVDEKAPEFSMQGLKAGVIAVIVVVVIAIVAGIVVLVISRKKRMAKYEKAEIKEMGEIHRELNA
Sequence of FcγRI (CD64) (human) (P12314 16-292): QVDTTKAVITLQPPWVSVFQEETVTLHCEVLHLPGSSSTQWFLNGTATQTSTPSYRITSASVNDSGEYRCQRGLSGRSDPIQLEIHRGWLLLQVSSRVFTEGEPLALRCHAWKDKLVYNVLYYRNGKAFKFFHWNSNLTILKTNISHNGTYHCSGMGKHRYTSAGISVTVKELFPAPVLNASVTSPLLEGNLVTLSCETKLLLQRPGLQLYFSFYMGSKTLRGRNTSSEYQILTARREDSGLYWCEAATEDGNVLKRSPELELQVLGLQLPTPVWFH

How did the Antibody per cell (Antibody per cell) [1] turn out when “Mouse anti-hEpCAM conjugated to PE, clone 9C4 (antibody)” was run?
The Antibody per cell (Antibody per cell) was 412000.

What about the Antibody per cell (Antibody per cell) [2] of the same substance?
The Antibody per cell (Antibody per cell) was 194000.

What about the Antibody per cell (Antibody per cell) [3] of the same substance?
Its Antibody per cell (Antibody per cell) is 231000.

What does the source list for IgG1-ctrl mAb (antibody)?
Kd (FcγRI (CD64) (human)): 1.18 nM; Kd (FcRn (human)): 366 nM; Kd [4]: 4200 nM; Kd [5]: 860 nM; Kd (FcγRIIIb (CD16b) (human)): 6500 nM
